Positions count from the first letter of the chain named.
T1: Cas1-2 integrase complex Wt (Escherichia coli (type I-E), UniProt Q46896;P45956 1-305;1-94)
T1 sequence 1: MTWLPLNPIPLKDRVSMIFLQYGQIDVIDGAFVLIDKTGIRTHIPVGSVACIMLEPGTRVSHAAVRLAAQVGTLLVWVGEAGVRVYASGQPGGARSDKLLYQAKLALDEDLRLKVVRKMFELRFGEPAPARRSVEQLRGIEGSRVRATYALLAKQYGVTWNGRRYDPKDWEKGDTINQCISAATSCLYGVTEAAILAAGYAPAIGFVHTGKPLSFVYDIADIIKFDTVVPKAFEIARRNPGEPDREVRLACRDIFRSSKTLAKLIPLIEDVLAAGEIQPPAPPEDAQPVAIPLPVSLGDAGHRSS
T1 sequence 2: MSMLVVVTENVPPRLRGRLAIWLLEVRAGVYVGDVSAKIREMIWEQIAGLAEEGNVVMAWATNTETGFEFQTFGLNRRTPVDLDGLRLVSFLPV

T2: Cas1-2 Y22A (Escherichia coli (type I-E), UniProt Q46896;P45956 1-305;1-94, Y22A)
T2 sequence 1: T1 sequence 1 with Y22A
T2 sequence 2: T1 sequence 2

B1: P63mPAMT* (dsDNA)
DNA 1: CTCCGCGCTGTAGCCCTCACCACTGTTGTGCACGACGACACCAGTCCGTGGCGTTATCCAGCT
DNA 2: AGCTGGATAACGCCACGGACTGGTGTCGTCGTGCACAACAGTGGTGAGGGCTACAGCGCGGAG
B2: P63mPAMB* (dsDNA)
DNA 1: B1 DNA 1
DNA 2: B1 DNA 2
B3: P63 (dsDNA)
DNA 1: B1 DNA 1 with C14A, C15A, C16G, C23T, C41T, G44T
DNA 2: B1 DNA 2 with C20A, G23A, G41A, G48C, G49T, G50T
B4: P23[3'-5] (dsDNA)
DNA 1: ATTTACTACTCGTTCTGGTGTTTCTCGT
DNA 2: AAACACCAGAACGAGTAGTAAATTGGGC
B5: P33 (dsDNA)
DNA 1: GCCCAATTTACTACTCGTTCTGGTGTTTCTCGT
DNA 2: ACGAGAAACACCAGAACGAGTAGTAAATTGGGC
B6: P23[3'-10] (dsDNA)
DNA 1: ATTTACTACTCGTTCTGGTGTTTCTCGTCAGGG
DNA 2: AAACACCAGAACGAGTAGTAAATTGGGCTTGAG

Legend:
[1] = molecular target: T1, Cas1-2 integrase complex Wt; assay: T5 exonuclease footprinting
[2] = molecular target: T1, Cas1-2 integrase complex Wt; assay: EMSA
Cas1-2 Y22A = molecular target: T2, Cas1-2 Y22A; assay: EMSA

Row | Binder | binding result [1] | Kd [2] [nM] | Kd (Cas1-2 Y22A) [nM]
1 | B1 | binds |  | 
2 | B2 | binds |  | 
3 | B3 |  | 831 | 6220
4 | B4 |  | 254 | 
5 | B5 |  | 2660 | 
6 | B6 |  | 286 | 

From doi:10.1101/602623
